The text below walks through data of patent US20230043289A1 (AC IMMUNE, published 2023).

Where no end group is shown, it is not given here.

One assay concerns the target T1, MAPT(10-24) (human, also: biotinylated (position not given here)).
T1 construct: also called Tau fragment 10-24
T1 peptide: VMEDHAGTYGLGDRK
As to the kind of experiment: ELISA on Tau 15-mer peptides.

For another assay, the target named is T2, Tau fragment 37-51 (human, UniProt P10636-8 37-51).
T2 construct: range 37-51
T2 peptide (looked up): GDTDAGLKESPLQTP
As to the kind of experiment: ELISA on Tau 15-mer peptides.

A further assay concerns the target T3, Tau fragment 1-15 (human, UniProt P10636-8 1-15).
T3 construct: range 1-15
T3 peptide (looked up): MAEPRQEFEVMEDHA
Put plainly: ELISA on Tau 15-mer peptides.

The target in a further assay is T4, Tau fragment 28-42 (human, UniProt P10636-8 28-42).
T4 construct: range 28-42
T4 peptide (looked up): GYTMHQDQEGDTDAG
Put plainly: ELISA on Tau 15-mer peptides.

Another assay concerns the target T5, Tau fragment 19-33 (human, UniProt P10636-8 19-33).
T5 construct: range 19-33
T5 peptide (looked up): GLGDRKDQGGYTMHQ
Put plainly: ELISA on Tau 15-mer peptides.

Assay [1] addresses T6, Human Tau monomer (recombinant 2N4R isoform, amino acids 2-441) (human, UniProt P10636-8 2-441).
T6 construct: range 2-441; also called monomeric human Tau; human monomer Tau protein
As to the kind of experiment: SPR 25C, hIgG captured, Tau monomer analyte.

Assay [2] has as its target T6, Human Tau monomer (recombinant 2N4R …). Put plainly: SPR, hIgG captured, Tau monomer 3.1-100 nM. As to the method:
To assess the impact of N²⁸ deamidation on the affinity for human Tau, it was desirable to obtain two samples with widely separated N²⁸ deamidation status. Hu37D3-H9.v5 hIgG4.S228P was incubated at 40° C. for two weeks at a concentration of 1 mg/ml in Phosphate Buffered Saline, pH 7.4. Deamidation of the N²⁸G²⁹ motif was measured using LC-MS/MS. […] The stressed and unstressed antibodies were analyzed for Tau binding by surface plasmon resonance (Biacore) using the GE Biacore human IgG capture kit and a Series S CM5 chip. The hIgG were diluted to 2 μg/ml in 10 mM HEPES pH7.4, 150 mM NaCl, 0.05% Tween 20 (running buffer, HBSP) and captured at a flow rate of 10 μl/min for 15 seconds (t0 sample) or 17 seconds (t2 sample). […] Between cycles the surface was regenerated using a 30 second injection of 3M Magnesium Chloride at 10 μl/min. A 1:1 binding model was fitted to the data using instrument defaults, including local fitting of the “RI” parameter.

Assay [3] shares this target. Put plainly: SPR 37C, hIgG captured, Tau monomer 0.1-33.3 nM. As to the method: Affinity for human and cynomolgus monkey Tau was measured at 37° C. using a Biacore T200 instrument, the GE Biacore human IgG capture kit and a Series S CM5 Sensor Chip. Antibodies were diluted to 1 μg/ml in running buffer HBS-EP (10 mM HEPES pH7.4, 150 mM NaCl, 1 mM EDTA, 0.05% Tween 20) and captured at a flow rate of 10 μl/min for 15 seconds. Data was collected for the binding of human and cynomolgus Tau monomer, each of which was injected at 0, 0.1, 0.4, 1.2, 3.7, 11.1, and 33.3 nM, using a flow rate of 30 μl/min, a contact time of 300 s, and a dissociation time of 900 s. Between cycles, the surface was regenerated with 3M magnesium chloride. Data was fit to a 1:1 binding model using BIAEvaluation software.

T6 sequence (P10636 other isoform, or with tags, fused parts or gaps limits assumed): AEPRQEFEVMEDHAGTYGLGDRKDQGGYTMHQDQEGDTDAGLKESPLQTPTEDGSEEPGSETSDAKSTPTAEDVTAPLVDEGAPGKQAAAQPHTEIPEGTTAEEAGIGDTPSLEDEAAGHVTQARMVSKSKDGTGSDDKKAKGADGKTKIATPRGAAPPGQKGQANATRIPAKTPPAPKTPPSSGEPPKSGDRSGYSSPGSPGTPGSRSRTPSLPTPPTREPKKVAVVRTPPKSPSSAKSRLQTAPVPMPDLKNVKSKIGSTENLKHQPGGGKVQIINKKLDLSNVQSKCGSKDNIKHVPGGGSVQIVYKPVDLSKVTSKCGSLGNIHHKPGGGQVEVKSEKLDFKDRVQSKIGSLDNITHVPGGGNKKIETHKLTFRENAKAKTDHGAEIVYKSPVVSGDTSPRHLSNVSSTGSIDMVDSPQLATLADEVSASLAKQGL

B1: 123E9-A1 (antibody, IgG2a, V domains shown)
VH: EVQLQQSGPELVKPGASVKMSCKASGYTFTDYYMKWVKQSHGKSLEWIGDIDPNNGGTSYNQKFKGKATLTVDKSSSTAYMQLNSLTSEDSAVYYCARSAGFGDSFSFWGLGTLVTVSA
VL: DVLMTQTPLSLPVSLGDQASISCRSSQSIVHSNGNTYLEWYLQKPGQSPKLLIYKVSNRFSGVPDRFSGSGSGTDFTLKISRVEAEDLGFYYCFQGSHVPPTFGGGTKLEIK
notes: Ex.2 hybridoma supernatant; Ex.3 recombinant mIgG2a/kappa
As for B1, the binding result with MAPT(10-24), in the assay with Tau fragment 37-51 and with Tau fragment 1-15 was “no binding” throughout.

B2: 19H6-F7 (antibody, IgG2a, V domains shown)
VH: EVQLVESGGDLVKPGGSLKLSCAASGFTFSSYGMSWVRQTPDKRLEWVATISSGGTYTYYPDSVKGRFTISRDNAKNTLYLQMSSLKSEDTAMYYCAPSYDGAMDYWGQGTSVTVSS
VL: DVLMTQTPLSLPVSLGDQASISCRSSQSIVHSNGNTYLEWYLQKPGQSPKLLIYKVSNRFSGVPDRFSGSGSGTDFTLKISRVEAEDLGVYYCFQGSLVPWTFGGGTKLEIK
notes: as for B1
With B2, the binding result in the assay with Tau fragment 28-42, in the assay with Tau fragment 37-51, with Tau fragment 1-15 and in the assay with Tau fragment 19-33 was “no binding” in each case.

B3: 54C1-H11 (antibody, IgG2a, V domains shown)
VH: EVQLVESGGDLVKPGGSLKVSCVASGFTFRSYGMSWVRQTPDKRLDWVATISSGGNYTYYPDSVKGRFTISRDNAKNTLYLQMSSLKSEDTAMYYCASSYSGAMDYWGQGTSVTVSS
VL: DTVMTQSPLSLPVSLGDQASISCRSSQSIVHSNGNTYLEWYLQKPGQSPKLLIYTVSNRFSGVPDRFSGSGSGTDFTLKISRVEAEDLGVYYCFQGSHVPWTFGGGTKLEIK
notes: as for B1
With B3, the binding result with Tau fragment 28-42, in the assay with Tau fragment 37-51, with Tau fragment 1-15 and in the assay with Tau fragment 19-33 was “no binding” each time.

B4: 3A4-H4 (antibody, IgG2a, V domains shown)
VH: EVQLVESGGDLVKPGGSLKLSCAASGFTFSSYGMSWVRQTPDKRLEWVATISSGGTYTYYPDSVKGRFTISRDNAKNTLYLQMSSLKSEDTAMYFCATSYDGAMDYWGQGTSVTVSS
VL: DVLMTQTPLSLPVSLGDQASISCRSSQNIVHSNGNTYLEWYLQKPGQSPKLLIYKVSNRFSGVPDRFSGSGSGTDFTLKISRVEAEDLGVYYCFQGTLVPWTFGGGTKLEIK
notes: as for B1
Turning to B4, the binding result with Tau fragment 28-42, with Tau fragment 37-51, with Tau fragment 1-15 and with Tau fragment 19-33 was “no binding” each time.

B5: 89F4-A1 (antibody, IgG2a, V domains shown)
VH: EVQLVESGGGLVQPKGSLKLSCAASGFTFNTYAMNWVRQAPGKGLEWVARIRSKSNNYAAYFADSVKDRFTISRDDSQTMLYLQMNNLKSEDTAMYYCVSGGNYVPFAYWGQGTLVTVSA
VL: NIMMTQSPSSLAVSAGEKVTMSCKSSQSVFYSSEQRNYLAWYQQKPGQSPKLLISWASTRESGVPDRFTGSGSGTDFTLTISSVQGEDLAVYYCHQYLSSFTFGSGTKLEIK
notes: as for B1
Take B5: the binding result in the assay with MAPT(10-24), in the assay with Tau fragment 1-15 and with Tau fragment 19-33 was “no binding” each time.

B6: hu37D3-H9.v5 hIgG4.S228P, stressed (t = 2 weeks) (antibody, V domains shown)
VH: EVQLVESGGGLVQPGGSLRLSCAASGLIFRSYGMSWVRQAPGKGLEWVATINSGGTYTYYPDSVKGRFTISRDNSKNTLYLQMNSLRAEDTAVYYCANSYSGAMDYWGQGTLVTVSS
VL: EDVLTQTPLSLPVTPGQPASISCRSSQSIVHSNGNTYFEWYLQKPGQSPQLLIYKVSNRFSGVPDRFSGSGSGTDFTLKISRVEAEDVGVYYCFQGSLVPWTFGQGTKVEIK
modifications: light chain N28 (Kabat) partly deamidated: 43.1% increase after 2 weeks at 40 C in PBS pH 7.4
notes: human IgG4 with S228P, kappa; thermally stressed sample, a mixed population
B6: the values for the Kd in assay [1] and in assay [2] were 1.5 nM and 0.7 nM, respectively.

B7: hu37D3-H9.v93 (antibody, V domains shown)
VH: EVQLVESGGGLVQPGGSLRLSCAASGLIFRSYGMSWVRQAPGKGLEWVATINSGGTRTYYPDSVKGRFTISRDNSKNTLYLQMNSLRAEDTAVYYCANSYSGAMDYWGQGTLVTVSS
VL: EDLLTQSPSSLSASVGDRVTITCRSSQSIVHSNGNTYLEWYQQKPGKSPKLLIYKVSNRFSGVPSRFSGSGSGTDFTLTISSLQPEDFATYYCFQGTLVPWTFGQGTKVEIK
On to B7, for which, in assay [3], the Kd came to 0.1 nM, the koff came to 0.00102 s⁻¹ and the kon is 6.89e+06 M⁻¹ s⁻¹.

B8: hu37D3-H9.v83 (antibody, V domains shown)
VH: EVQLLESGGGLVQPGGSLRLSCAASGLIFRSYGMSWVRQAPGKGLEWVATINSGGTRTYYPDSVKGRFTISRDNSKNTLYLQMNSLRAEDTAVYYCANSYSGAMDYWGQGTLVTVSS
VL: DDLLTQSPLSLPVTLGQPASISCRSSQSIVHSNGNTYLEWYQQRPGQSPRLLIYKVSNRFSGVPDRFSGSGSGTDFTLKISRVEAEDVGVYYCFQGTLVPWTFGQGTKVEIK
Regarding B8, in assay [3], the Kd was determined as 0.1 nM, the koff was 0.000818 s⁻¹ and the kon stood at 6.19e+06 M⁻¹ s⁻¹.

B9: hu37D3-H9.v76 (antibody, V domains shown)
VH: EVQLVESGGGLVQPGGSLRLSCAASGLIFRSYGMSWVRQAPGKGLEWVATINSGGTRTYYPDSVKGRFTISRDNSKNTLYLQMNSLRAEDTAVYYCANSYSGAMDYWGQGTLVTVSS
VL: DDLLTQTPLSLPVTPGQPASISCRSSQSIVHSNGNTYLEWYLQKPGQSPQLLIYKVSNRFSGVPDRFSGSGSGTDFTLKISRVEAEDVGVYYCFQGTLVPWTFGQGTKVEIK
As for B9, in assay [3], the Kd worked out at 0.1 nM, the koff is 0.000892 s⁻¹ and the kon was 6.94e+06 M⁻¹ s⁻¹.

B10: 94B2-C1 (antibody, IgG2a, V domains shown)
VH: EVQLQQSGPELVKPGASMKISCKASGYSLTGYTMNWVKQSHGKNLEWIGLISPYNGVTSYNQKFKGKATLTVDKSSNTAYMELLSLTFEDSAVYYCARQGAYWGQGTLVTVSA
VL: not shown
notes: as for B1
Turning to B10, the binding result with Tau fragment 28-42 and with Tau fragment 37-51 was “no binding” in each case.
